Assay [1] has as its target Aβ(M1-40) (human). Description: cell-based or functional assay.
Assay [2] addresses Aβ(M1-42) (human). Description: cell-based or functional assay.

Chain of Aβ(M1-40) (human) (peptide, as listed by the source): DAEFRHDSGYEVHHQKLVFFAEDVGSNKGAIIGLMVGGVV
Chain of Aβ(M1-42) (human) (peptide, as listed by the source): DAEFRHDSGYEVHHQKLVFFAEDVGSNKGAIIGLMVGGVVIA

As to “human anti-thrombin (from UniProt P01008 33-464)”, in assay [1], the molar equivalents needed for the same inhibition of Aβ40 aggregation (ThT assay) (molar equivalents) amounted to 0.01. Besides, the effect on Aβ42 aggregation (ThT assay) (molar equivalents) in assay [2] was 0.1.

These data come from patent publication US20140030274A1.
